Results on five molecules are retold here after patent US20040259096A1, “Receptor capture assay” (priority 2001, published 2004).

In one series the test system is HIF-1α. Put plainly: Detecting HIF-1α activation in cytosolic extracts of HeLa S3 cells, anti-ARNT capture, real-time PCR. It counts as cell-based, human. As to the method:
HIF-1 DNA binding activity was induced as follows. Actively dividing HeLa S3 cells were treated with 125 μM CoCl2 for 4 hr at 37° C. Cells were washed 2× in tissue culture dishes with ice cold phosphate-buffered saline (PBS) before harvesting. Cells were pelleted at 420×g for 5 min, washed twice with PBS and resuspended in 5 packed cell volumes of buffer A (10 mM Tris-HCl (pH 7.6), 1.5 mM MgCl2, 10 mM KCl, 1 mM DTT) supplemented with Sigma protease inhibitor cocktail (P 8340, Sigma Chemical Co., St. Louis, Mo.). After incubation on ice for 15 min, cells were pelleted at 450×g for 5 min, resuspended in 2 packed cell volumes of buffer C (0.42 M KCl, 20 mM Tris-HCl (pH 7.6), 20% glycerol, 1.5 MM MgCl2, 1 mM DTT and 0.2 mM EDTA) supplemented with Sigma protease inhibitor cocktail. The cells were disrupted using a Branson Sonifier 450 (Branson Ultrasonics Corp., Danbury, Conn.) fitted with a microtip for two 20-second pulses at a 45% duty cycle. After centrifugation at 20,000×g for 5 min, the supernatant was designated as cytosolic extract. The cytosolic extracts from treated and untreated cells were aliquoted and stored at −80° C. […]
Primers PRIHa and PRIHb (0.9 μM final) were added to 2×PCR SYBR® Green Master Mix (Applied Biosystems Cat No. 4309155) and the Master Mix made 1× with Water. […] 50 μl of master mix from each well was transferred to a PCR plate, capped and analyzed by real-time PCR using an Opticon thermocycler (MJ Research, Inc., Watham, Mass.). […]
In brief cytosolic extracts prepared from untreated or CoCl2 treated cells were diluted and exposed to nucleic acid-tracer. […] DNA amplification was monitored using real-time PCR. The process takes only a few hours to complete and provides qualitative or quantitative results.
The PCR data is typically plotted as a primary growth curve. For quantitative and comparative purposes, a threshold cycle (Ct) is defined for each sample. […] The Ct value is typically calculated near the first cycle where the PCR products are amplified at the greatest rate (no reagent is limiting) and where the amplified product is detectable above background. […]
(In qPCR the cycle at which signal appears reflects the starting amount.)

Series [1] addresses T1, Estrogen receptor alpha (Homo sapiens, UniProt P03372 P03372:1-595). Put plainly: anti-ER capture PCR; DMSO 137, estradiol […]; 25 mM Tris pH 8.0, 50 mM KCl, 4 C; ligand independent. The settings on record: tags: baculovirus expressed, Panvera P2187; chain copies: 2.
Series [2] deals with T2, Glucocorticoid receptor (UniProt P04150 P04150:1-777). Briefly: anti-GR capture PCR; DMSO 82, dexamethasone 68; 25 mM Tris pH 7.9, 60 mM KCl, 4 C; ligand independent. The settings on record: tags: baculovirus expressed, Panvera P2187 (so in the source).
Series [3] deals with T2, Glucocorticoid receptor. Put plainly: competition; 100-fold excess reduces tracer signal 68 to 44. The settings on record: tags: baculovirus expressed, Panvera P2187 (so in the source).
The target of series [4] is T1, Estrogen receptor alpha. Put plainly: competition; 100-fold excess reduces tracer signal 104 to 81. The settings on record: tags: baculovirus expressed, Panvera P2187; chain copies: 2.

T1 sequence (P03372 whole entry, one chain of several): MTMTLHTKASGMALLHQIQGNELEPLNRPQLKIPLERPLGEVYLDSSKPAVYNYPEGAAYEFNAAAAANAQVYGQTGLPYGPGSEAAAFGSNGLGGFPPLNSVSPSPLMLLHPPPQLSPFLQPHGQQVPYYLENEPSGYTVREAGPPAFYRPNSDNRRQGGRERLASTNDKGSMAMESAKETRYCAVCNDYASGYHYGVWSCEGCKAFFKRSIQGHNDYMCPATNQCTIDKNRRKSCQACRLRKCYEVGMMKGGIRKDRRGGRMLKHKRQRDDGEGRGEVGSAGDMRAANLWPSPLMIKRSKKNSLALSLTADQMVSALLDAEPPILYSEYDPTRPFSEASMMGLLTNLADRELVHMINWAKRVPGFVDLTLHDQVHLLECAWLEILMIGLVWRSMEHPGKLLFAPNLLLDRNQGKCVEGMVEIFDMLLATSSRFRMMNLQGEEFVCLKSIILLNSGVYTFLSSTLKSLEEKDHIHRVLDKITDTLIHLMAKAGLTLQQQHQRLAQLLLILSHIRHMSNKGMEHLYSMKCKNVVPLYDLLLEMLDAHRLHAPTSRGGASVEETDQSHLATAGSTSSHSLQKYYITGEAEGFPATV
T2 sequence (P04150 whole entry, one chain of several): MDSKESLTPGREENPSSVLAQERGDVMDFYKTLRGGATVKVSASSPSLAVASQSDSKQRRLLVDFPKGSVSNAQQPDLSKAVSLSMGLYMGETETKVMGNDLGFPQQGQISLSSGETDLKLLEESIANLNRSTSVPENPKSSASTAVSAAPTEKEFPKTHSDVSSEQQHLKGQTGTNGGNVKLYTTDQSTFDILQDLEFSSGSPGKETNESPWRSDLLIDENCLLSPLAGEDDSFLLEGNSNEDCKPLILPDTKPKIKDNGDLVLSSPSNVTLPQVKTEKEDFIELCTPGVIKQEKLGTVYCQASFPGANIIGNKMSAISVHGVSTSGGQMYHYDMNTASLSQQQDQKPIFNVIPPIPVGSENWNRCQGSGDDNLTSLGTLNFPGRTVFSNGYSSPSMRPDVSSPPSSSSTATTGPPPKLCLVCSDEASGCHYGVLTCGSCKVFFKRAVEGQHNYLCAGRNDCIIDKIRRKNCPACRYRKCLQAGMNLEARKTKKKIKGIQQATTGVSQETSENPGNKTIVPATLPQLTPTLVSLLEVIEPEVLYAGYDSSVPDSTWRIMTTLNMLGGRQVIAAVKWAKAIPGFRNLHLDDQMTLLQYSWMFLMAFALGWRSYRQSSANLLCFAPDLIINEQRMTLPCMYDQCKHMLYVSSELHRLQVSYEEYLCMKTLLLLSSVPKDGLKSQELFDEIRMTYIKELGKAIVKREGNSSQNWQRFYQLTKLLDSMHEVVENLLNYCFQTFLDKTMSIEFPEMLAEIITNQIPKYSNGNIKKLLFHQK

In the case of `[Cl][Co][Cl]` [CoCl2, cobalt chloride], the “Ct Value” in the series with HIF-1α (cytosol of treated cells (CoCl2), plus 100x DNA competitor) was determined as 22.52; in the series on HIF-1α (cytosol of treated cells (CoCl2, 4 hr), no DNA competitor, untreated 23.08), 20.47. Besides, the “difference of Ct values, treated versus untreated cytosolic preparations” value in the series on HIF-1α (no DNA competitor) is on record as “more than 2.60 units”.

B1: ERE tracer (VER1/VER2) (dsDNA)
DNA 1: CAACTTCATCCACGTTCACCGTCCAAAGTCAGGTCACAGTGACCTGATCAAAGTTGTACCTGTCCTTGGCTCTTC
DNA 2: GAAGAGCCAAGGACAGGTACAACTTTGATCAGGTCACTGTGACCTGACTTTGGACGGTGAACGTGGATGAAGTTG
On to B1, for which, in the series with Estrogen receptor alpha [1], the binding result is “binds”.

B2: GRE tracer (BGGR1/BGGR2) (dsDNA)
DNA 1: CAACTTCATCCACGTTCACCGCTGTACAGGATGTTCTGCCGTACCTGTCCTTGGCTCTTC
DNA 2: GAAGAGCCAAGGACAGGTACGGCAGAACATCCTGTACAGCGGTGAACGTGGATGAAGTTG
On to B2, for which the binding result with Glucocorticoid receptor [2] is on record as “binds”.

B3: competitor GRE (TGR1/TGR2) (dsDNA)
DNA 1: GCTGTACAGGATGTTCTGCC
DNA 2: GGCAGAACATCCTGTACAGC
With B3, the binding result with Glucocorticoid receptor [3] is listed as “binds”.

B4: competitor ERE (DX1/DX3) (dsDNA)
DNA 1: CTAGAAAGTCAGGTCACAGTGACCTG
DNA 2: CAGGTCACTGTGACCTGACTTTCTAG
In the case of B4, the binding result in the series with Estrogen receptor alpha [4] is listed as “binds”.
